For the assay, the target named is human CC-chemokine receptor 2 (CCR2), endogenous on THP-1 cells, PBMC and whole blood cells (human) (UniProt P41597). Nature of the assay: cell-based or functional assay.
UniProt P41597, sequence (P41597 whole entry): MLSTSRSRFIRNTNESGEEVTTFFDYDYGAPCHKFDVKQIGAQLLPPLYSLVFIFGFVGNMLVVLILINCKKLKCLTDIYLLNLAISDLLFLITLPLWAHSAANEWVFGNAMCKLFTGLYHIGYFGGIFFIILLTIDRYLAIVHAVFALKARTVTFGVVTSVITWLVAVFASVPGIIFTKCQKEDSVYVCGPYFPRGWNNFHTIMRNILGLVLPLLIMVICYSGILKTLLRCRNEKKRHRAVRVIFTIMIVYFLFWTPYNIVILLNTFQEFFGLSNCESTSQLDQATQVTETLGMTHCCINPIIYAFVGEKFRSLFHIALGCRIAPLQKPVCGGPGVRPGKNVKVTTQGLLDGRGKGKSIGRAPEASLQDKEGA

The substance murine monoclonal antibody LS132.1D9 showed an MCP-1-induced chemotaxis of fresh PBMC of 10 µg/mL.
